Source: the supplement of paper PMC7877785
± gives the uncertainty stated by the source.

Experiment: self-splicing fitness, log relative to wild type (ln ratio); higher = more splicing; Tetrahymena group I intron in knt gene, E. coli kanamycin selection, DiMSum; sequences stand for … in CUCUCU…GGAGGGAAAAGUUAUCAGGCAUGCACCUGGUAGCUAGUCUUUAAACCAAUAGAUUGCAUCGGUUUAAAAGGCAAGACCGUCAAAUUGCGGGAAAGGGGUCAACAGCCGUUCAGUACCAAGUCUCAGGGGAAACUUUGAGAUGGCCUUGCAAAGGGUAUGGUAAUAAGCUGACGGACAUGGUCCUAACCACGCAGCCAAGUCCUAAGUCAACAGAUCUUCUGUUGAUAUGGAUGCAGUUCACAGACUAAAUGUCGGUCGGGGAAGAUGUAUUCUUCUCAUAAGAUAUAGUCGGACCUCUCCUUAAUGGGAGCUAGCGGAUGAAGUGAUGCAACACUGGAGCCGCUGGGAACUAAUUUGUAUGCGAAAGUAUAUUGAUUAGUUUUGGAGUACUCGUGGUCG
How it was run: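 Colonies from six replicate transformations of E. coli BL21(DE3) were pooled and amplicon-sequenced on an Illumina HiSeq 2500. The library placed an intron with all eight P1ex-region nucleotides randomised inside the knt kanamycin-resistance gene on pET-22b(+), and cells grew overnight at 37°C or 30°C on LB agar with or without 25 μg/mL kanamycin (plus 100 μg/mL carbenicillin, 50 μM IPTG, 0.2% rhamnose). Fitness is the DiMSum error-weighted combination of wild-type-normalised replicate fold changes, kanamycin versus none.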

| Sequence | self-splicing fitness (ln) (30 °C) | self-splicing fitness (ln) (37 °C) |
| --- | --- | --- |
| AUACAGCAAUAUUACGACCA | -0.419 ± 0.15 | -0.298 ± 0.17 |
| UAACAGCAAUAUUACGUGCG | -0.551 ± 0.072 | 0.0501 ± 0.085 |
| UGCGAGCAAUAUUACGGUAC | -4.18 ± 0.3 | -3.26 ± 0.23 |
| GCGUAGCAAUAUUACGUAUU | -2.67 ± 0.12 | -2.11 ± 0.19 |
| UGCCAGCAAUAUUACGAGAG | -4.28 ± 0.21 | -2.56 ± 0.14 |
| CGCUAGCAAUAUUACGGUAG | -2.52 ± 0.11 | -2 ± 0.13 |
| UGAAAGCAAUAUUACGCCAA | -1.13 ± 0.15 | -0.806 ± 0.18 |
| GUGCAGCAAUAUUACGGCAA | 0.24 ± 0.12 | 0.291 ± 0.15 |
| AAAAAGCAAUAUUACGACUG | -1.14 ± 0.098 | -0.0274 ± 0.11 |
| ACUUAGCAAUAUUACGAAUU | -2.29 ± 0.1 | -0.888 ± 0.14 |
| GAGUAGCAAUAUUACGCCCG | -0.892 ± 0.21 | -1.03 ± 0.31 |
| UUACAGCAAUAUUACGACAA | -0.25 ± 0.07 | 0.353 ± 0.083 |
| UUUUAGCAAUAUUACGUAUG | -2.01 ± 0.19 | -0.735 ± 0.2 |
| GGCGAGCAAUAUUACGUGUU | -2.5 ± 0.12 | -1.39 ± 0.14 |
| GUACAGCAAUAUUACGGUCG | -1.36 ± 0.058 | -0.547 ± 0.084 |
| CUGUAGCAAUAUUACGAUUU |  | -2.62 ± 0.36 |
| UCAUAGCAAUAUUACGUCCA | -1.07 ± 0.16 | -0.442 ± 0.17 |
| ACCGAGCAAUAUUACGCAAA | -3.62 ± 0.24 | -3.11 ± 0.24 |
| UGCAAGCAAUAUUACGUAAU | -1.85 ± 0.089 | -1.86 ± 0.13 |

| Sequence | self-splicing fitness (ln) (30 °C) | self-splicing fitness (ln) (37 °C) |
| --- | --- | --- |
| ACGGAGCAAUAUUACGCCUA | -2.13 ± 0.28 | -1.6 ± 0.27 |
| AGCAAGCAAUAUUACGUACG | -1.99 ± 0.13 | -0.695 ± 0.11 |
| CGCCAGCAAUAUUACGUGAG | -1.37 ± 0.078 | -1.25 ± 0.11 |
| AAAUAGCAAUAUUACGUAUG | -2.64 ± 0.12 | -2.08 ± 0.13 |
| UACAAGCAAUAUUACGGUAC | -4.41 ± 0.31 | -3.1 ± 0.33 |
| GGAUAGCAAUAUUACGCCCU | -2.08 ± 0.14 | -2.27 ± 0.17 |
| GUGCAGCAAUAUUACGUGAC | -1.86 ± 0.14 | -1.33 ± 0.14 |
| AGCAAGCAAUAUUACGAACU | -0.731 ± 0.12 | -0.593 ± 0.14 |
| CAAAAGCAAUAUUACGAGAU | -3.7 ± 0.2 | -2.21 ± 0.16 |
| GCCAAGCAAUAUUACGCUCC | -0.474 ± 0.14 | 0.717 ± 0.17 |
| UGCGAGCAAUAUUACGCGUC | -2.18 ± 0.26 |  |
| ACACAGCAAUAUUACGCGGU | -4.42 ± 0.23 | -2.89 ± 0.17 |
| GGGAAGCAAUAUUACGAUUC | -0.445 ± 0.14 | -0.851 ± 0.16 |
| AGACAGCAAUAUUACGUUGA | -3.58 ± 0.16 | -1.77 ± 0.11 |
| ACGAAGCAAUAUUACGGGUG | -1.74 ± 0.069 | -1.36 ± 0.083 |
| AGACAGCAAUAUUACGCAAC | -3.42 ± 0.22 | -1.2 ± 0.14 |
| CGCGAGCAAUAUUACGACCC | -0.487 ± 0.44 |  |
| CCUUAGCAAUAUUACGGGUG | -1.5 ± 0.065 | -0.759 ± 0.081 |
| UCAAAGCAAUAUUACGCAGA | -3.13 ± 0.21 | -2.64 ± 0.16 |
